Measured values: the nanobody polyreactivity screen of Harvey et al. (2022)

Assay: yeast display, Sf9 membrane polyspecificity reagent, FACS + sequencing; frameworks hold sequencing errors
How it was run: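 Polyreactivity labels are assigned by the sorting gate from which each nanobody was recovered. The gates were low and high (top ~1%), set on anti-HA fluorescence for expression and streptavidin fluorescence for reagent binding. Before sorting, galactose-induced (36–48 hours) yeast display cells were stained for 1 hour at 4 °C with 10% biotinylated, detergent-solubilized Sf9 membrane reagent.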

Sequence	polyreactivity (PSR sort gate)
QVQLVESGGGLVQAGGSLRLSCAASGRTFRSYAMGWYRQAPGKERELVAVISGGGTYYADSVKGRFTISRDNAKNTVYLQMNSLKPEDTAVYYCAAQFHFRPFSWTYDYWGQGTQVTVSS	high polyreactivity
QVQLVESGAGVVQAGGSLRLSCAASGFTLHSYAMGWYRQAPGKERELVAAITRSGGGTYYADSVKGRFTISRDNAKKTVYLQMNSLKPEDTAVYYCAARFGGQYQHDYWGQGTQVTVSS	high polyreactivity
QVQLVESGGGLVQAGGSLRLSCAASGRIFRGYTMGWYRTAPGKERELVAAISRSTGSTNYADSVKGRFTISRDNAKNTVYLQMNSLKPEDTAVYYCAAGPVDYGDWYYDVWFDYWGQGTQVTVSS	high polyreactivity
QVQLVESGGGLVQAGGSLRLSCAASGSTFYPNAMGWYIQAPGKERELVADITISGGRTYYADSVKGLFTISRDNAKNTVYLQMNSLKPEDTAVYYCNTRGIFFQSQTHDYWGQGTQVTVSS	low polyreactivity
QVQHVESGGGLVQAGGSLRLRCAASGITSRYNDMGWSRQAPGKERELVATITWRGVSTYYADSVKGRFTISRDNAKNTVYVQMNSLKPEDTAVYYCAARRPGYYPYKGFDYWGQGTQVTVSS	high polyreactivity
QVQLVESGGGLVQAGGSLRLSCAASGLIFARYVMGWYRHAPGKERELVADIDKGGGSTYYADSVKGRFTISRDNAKNTDSLQMNSLKPEDSSVYYCIADFDGWWWDDYRGQGTQVTVSS	high polyreactivity
QVQLQESGGGLVQAGGSPRLSCAASGTITRQYYMGWYRQAPGKERGFVAGIKSGSTTYYADNVKGCFTISRDNAKNAAYLQMNSLKPEDTAVYYCAIRPSYTIPYWYWGQGTQVTVSS	high polyreactivity
QVQLVESGGGLVQAGGSLRLSCAASGRTFSGNAMGWYRQAPGKERELVASISTSTDGTYYADSVKGRFTISRDNAKNTVYLQMNSLKAEDTAVYYCTTTTYHWYYYRWEIFDYRGQGTQVTVSS	low polyreactivity
QVQLVESGGGLVQAGGSLRLSCAASGRTFSSYAMGWYRQAPGKERELVAAISSGGSTYYADSVKGRFTISRDNAKNTVYLQMNSLKPEDTAVYYCNRRFYYKIGRGIRYFWGQVTQVTVSS	high polyreactivity
QVQLVESGGGLVQAGGSLRLSCAASGRIFHYNDMVWYRQAPGKEREFVATIRYSGGSTYYADSVKGRFTISRDNAKNTVYLQLNSLKPEDTAVYYCATSRRYLRFRNYYGYDYWGQGTQVTVSS	high polyreactivity
QVQLVESGGGLVQAGGSLRLSCAASGGIFAWNAMGWYRQAPGKERELVAAISGRGGSTTYADSVKGRFTISRDNAKNTVYLQMNSLKPEDTAVYYCAKRWYSGWYKYDYWGQGTQVTVSS	high polyreactivity
QVQLVESGGGLVQAGGSLRLSCAASGGIFYLNAMGWYRQAPRKERELVAAITGTGGNTYYADSVKGRFTISRDNAKNTVYLQMNSLKPEDTAVYYCAAAAIGVGSGPFGIGWEEYYYWGLGTQVTVSS	low polyreactivity
QVQLVDSGGGIVQAGGSLRLSCAASGFIIAHYAMGWYRHAPGKERELVAAISWNGGRTYYADSVKGRFTISRDNAKNSVFFQRISLKPEDTAVYYCAADNRGTTVYYRNYYWGQGTQVTVSS	high polyreactivity
QVQLEDSGGGLVQAGGSLRLSCAASGLTFYGYTMGWYRQAPGKERELVAAISWSGGNTYYADSVKGRFTISRDNAKNTVYLQMNSLKPEDTAVYYCAAEHWTYDWVDYWGQGTQVTVSS	low polyreactivity
QVQLVESGGGLVQAGGCLRLSCADSGGTFGPYAMGWYIQAPGKEREFVARITGSGTRTYYADSVKGRFTISGDNAKNNVYLQMNSLNPEDTAVYYCATSHSRGSRGHDYWGQGTQVTVSS	low polyreactivity
QVQLVESGGGLVQAGGSLRLRCAPSGFIFNTMGWYRQAPGKERDLVATISWSDGSTYYADSVKGRFTISRDNAKNTVYLHMNSLKTEDTADYYCAATTDALVGRPRYDYWGQGTQVTVSS	low polyreactivity

Sequence	polyreactivity (PSR sort gate)
QVQLVESGGGLGQAGGSLRLSCAASGRTFTGYAMGWYRQAPGKERELVATISRSGGTTSYADSVKGRFTISRDNAKNTVYVQMNSLKPVDTAVYYCAADRRSRPYYYWGQGTQVTVSS	high polyreactivity
QVQLVESGGGLVQAGGSLRLSCAASGSIFKFYTMGWYRQAPGKERELVAAISWSGGRTYYADSVKGRFTISRDNAKNTVYLQMNSLKPEDTAVYYCAVPRVGLHGIGSDYWGQGTQVTVSS	high polyreactivity
QVQLVESGGGLVQAGGSLRLSCAASGRIFYIYAMGWFRQAPGKERELVAAITNGGSTNYADSVKGRFTISRDNAKNTVYLQMNSLKPEDTAVYYCAASVGTYAYARTVYRYDYWGQGTQVTVSS	low polyreactivity
QVQLVESGGGLVQAGGSLRLSCAASGGLFKVYGMRLYRQAPGQERELVAAISWTTGGTYYADSVKGRFTISRDNAKNTVYLQMNSLKPEDTAVYYCNAPTWYYSGVRYDYWGQGTQVTVSS	high polyreactivity
QVQLVESGGGVVQAGGSLRLSCAASGYTFLPYAMGWYRQAPGNARELVAAITVRGGRTYDADAVKGRFTISRHNAKKTVYLQMNSLKPEDTAVYYCHTDAYRLGYDYWGPGTQVTVSS	high polyreactivity
QVQLVESGGGLVQAGGSLRLSCAASGGTFIANAMGWYRQAPGKERELVATINANADTTYYADSVKGRFTISRDNAKNTVYLQMNSLKPEDTAVYYCAAAQRYPIKYYYWGQGTQVTVSS	low polyreactivity
QVQLVESGGGLVQAGGSLRLSCAASGRTFTAYTMGWYRQAPGKERELVASISSGVTYADSVKGRFTISRDNAKNTVYVQMNSLKPEDTAVYYCAARLWYVQGYVPYVHHRFDYWGQGTQVTVSS	low polyreactivity
QVQLVESGGGLVQAGGSLRLSCAASGRTFLTNAMGWYRQAAGKERELVAAITSSGGNTYYADSVKGRFTISRDNAKNTVYLQMNSLKPEDTAVYYCAAPGYVWYGGRWVYRYYYWGQGTQVTVSS	high polyreactivity
QVQLVESGGGLVQAGGIIRLSCDASGSTFVIYAMGWYRQAPGKERELVAVIDYSDDSTYYADSVKGRFTISRDNAKNTGYLQLNSVKPEVTEVYFCAAYVYYAKGSFDYWGQGTQVTVSS	high polyreactivity
QVQLVESGGGLVQAGGTLRLTCAASGSIFHWNTMGWYRHAPGKESELFATITQRGGSTYYADSVKARFTLSRDNAKNTVYLQMNSLKPEDTAVYYCAAAIYRASRRRTSYSYDYWGQGTQVTVSS	high polyreactivity
QVQLVESRGGLVQAGGSLRLSCAASGSTFFYNAMGWYRQAPGKEREFVAAITNGVITNYADSVKGRFTISRDNAKNTVYLQMNSLKPEDTAVYYCAALRWSPRSRYQYNYWGQGTQVTVSS	high polyreactivity
QVQLQECGGGLVQAGGRLRLSCAASGNIFDADIMGWYRQAPGKERELVASVTDGGSTNYADSVKGRFTISRDNAKNTVYLQMISLTPEDTAVYYCAAIVYPDILTYFDYDYDYFYWGQGTQVTVGS	low polyreactivity
QVQLVESGGGLVQAGGSLRLSCAASGRIFYGYTMGWYRPAPGKERELVAAISRYGGSTYYADSVKGRFTISRDNAKKTVYLQMNSLKPEDTAVYYCNAVYSRGYVIKPYDYWGQGTQVTVSS	high polyreactivity
QVQLVESGGGLVQAGGSLRLSCAASGRTFYGNAMGWYRQAPGKERELVAAITSGGGSTRYADSVKGRFTISRDNANNTVYLQMNSLKPEHTAVYYCAAYRQGTAYDYWGQGTQVTVSS	high polyreactivity
QVQLVESGGGLVQAGGSLRLSCAASGSTFLSYAMGRYRQAPGKERELVAAITGSGGNTYYADSVKGRFTISRDNAKNSVYLQMNSLKPEDTAVYYCAADTSYWYDYYIDYVGYYYWGQGTQVTVSS	high polyreactivity
